Here are results for 5 substances from US20240115742A1, “FLUORINATED FIBERS FOR MULTIMODAL 1H AND 19F MRI, ULTRASOUND, FLUORESCENCE DETECTION AND CONFORMATIONAL AND TEMPERATURE DETECTION BY 19F MRS” (New York University, priority 2022, published 2024).

Square brackets hold non-standard residues; d marks the D form. Ends that are not written are not given here. LTF = trifluoroleucine

Format in all cases: physicochemical
The nature of data set [1]: Confocal microscopy of CCM-bound fibers. The note with it: for fiber diameter after CCM binding (confocal): 50 μM protein saturated with CCM, pH 4.0. As to the method: Confocal Microscopy. Protein bound to CCM was studied by measuring 50 μM protein samples saturated with CCM as determined by fluorescent spectroscopic drug binding with a final 1% v/v DMSO (or 2×Kd). 10 μL of protein was added to a micro slide and a 22×22 mm #1 microscope cover glass. Slides were inverted and imaged using a Leica TCS SP8 X Laser Confocal Microscope using a dry 10× objective at RT. CCM was excited using a 460 nm line of the laser, and images were taken using a 470 to 550 nm detection window.
Confocal Microscopy. Q2LTF was diluted to 50 μM and saturated with 40 μM of curcumin (solubilized in DMSO) as determined by the binding affinity in drug-binding experiments. […] 5 μL of sample was deposited onto a microslide and covered with a 22×22 mm #1 microscope cover glass. Images were taken with a Leica TCS SP8 X laser confocal microscope using a dry 10× objective at RT. Samples were excited at 460 nm and images were taken with a 470-550 nm detection window.

Data set [2] in a line: CD temperature scans (melting temperature). The method, then:
Circular Dichroism Spectroscopy. Secondary structure was first assessed using the Jasco J-815 CD spectrometer with a PTC-423S single position Peltier temperature control system. Wavelength scans were performed from 190 to 250 nm using 15 μM samples at 1 nm step sizes at 25° C. Temperature scans were performed at α-helical minimum 222 nm from 20 to 85° C. The mean residue ellipticity (MRE) was calculated as described previously. MRE at 222 nm and 208 nm and their ratios were used to assess relative helicity.
Circular Dichroism Spectroscopy. The secondary structure of Q2LTF and QLTF was assessed using a Jasco J-815 circular dischroism (CD) spectrometer with a PTC-423S single position Peltier temperature control system. Wavelength scans were performed from 195 to 250 nm at 1 nm step sizes by diluting the protein into water (at approximately 10 μM) in order to minimize the effects of sodium chloride. […] The mean residue ellipticity (MRE) was calculated as described.

The nature of data set [3]: TEM of hydrogel nanofibers. Conditions: gel after incubation at 4 °C. The method, then:
Transmission Electron Microscopy. Transmission electron microscopy (TEM) images were taken with a FEI Talos L120C transmission electron microscope. The supramolecular assembly of Q2 and Q were monitored over the course of 60 and 144 hours, respectively (in correspondence with tube inversion and microrheology). TEM images were taken of the gel at times consistent with when microrheological measurements for Q2 for consistent fibril sizing. Samples were diluted to 50 μM and 3 μL was spotted on Formvar/carbon-coated copper grids followed by 5 μL wash with water, and 3 μL staining with 1% v/v uranyl acetate solution each with incubation times of 1 min. Following imaging, fibrils were sized in ImageJ software (Version 1.52q).
Transmission Electron Microscopy. Transmission electron microscopy (TEM) images were taken with a FEI Talos L120C transmission electron microscope. Samples were diluted to 50 μM and 3 μL was spotted on Formvar/carbon-coated copper grids followed by […] with water, and 3 μL staining with 1% v/v uranyl acetate solution each with incubation times of 1 min. Between steps, filter paper was used to gently wick the grids dry. Following imaging, minimum diameter nanofibers within the physically crosslinked hydrogel were sized in ImageJ software (Version 1.52q).

The nature of data set [4]: Tube inversion concentration-temperature phase diagram. Conditions: for solubility limit: 50 mM Tris, 500 mM NaCl, pH 8.0; for UCST: at solubility limit, extent of gelation η 0.5. The method, then:
Tube Inversion Test. Immediately after concentration to 2 mM, the protein was incubated at 4° C. over the course of two weeks after aliquoting 150 μL into a 2 mL Eppendorf tube. The samples were visually assessed for gelation by inverting the tubes at 12-hour time intervals thereafter, with gelled samples not flowing upon inversion.
Gelation. To study the relative gelation of Q2 as compared to the previously reported coiled-coil hydrogel, Q, protein was successfully expressed (FIG. 24), purified (FIG. 25), and concentrated to 2 mM (1% w/v) in Tris buffer (50 mM Tris, 500 mM NaCl) at pH 8.0. Purity of the protein was measured to be >99% by SDS-PAGE (FIG. 26) and concentration was measured by BCA assay. Immediately following concentration, the gelation process of Q2 was studied using the microrheology assay described previously following incubation at 4° C. Separately, 150 μL samples were aliquoted for tube inversion tests performed after 2 weeks of incubation for visual assessment of gelation over time at 4° C. (FIG. 19a-d) and at concentrations from 1 mM to 3.5 mM with temperatures 5° C. to 25° C. using 0.5 mM and 5° C. step sizes, respectively, to create a matrix-based phase diagram (FIG. 19e). Temperature and concentration ranges were selected based on preliminary tube-inversion testing at high and low ends of the ranges.
Thermoresponsiveness and material strength. UCST behavior of protein hydrogels was assessed by testing […] samples via tube inversion in 2 mL microtubes after incubation for two weeks at various temperatures and concentrations. Temperature conditions were modulated in the range of 5-40° C. The concentration range was modified depending on if precipitation was visually noticeable in the microtube at an earlier concentration, indicating a solubility limit to our phase diagram, as has been done previously. […] As done with Q2, the UCST of the hydrogels was determined using a bivariate linear relationship for the extent of gelation where tubes that passed gelation by tube inversion were assigned a value of 1 (shown in black in FIG. 52a and FIG. 64a-d) and tubes that failed gelation by tube inversion (shown in red in FIG. 52a and FIG. 64a-d) were assigned a value of 0. The heatmap in FIG. 52a and FIG. 64a-d was used to denote the range of extent of gelation where the equation was employed to solve for the UCST using the solubility limit and solving for an extent of gelation, η, value of 0.5. The UCSTs (FIG. 52b) for the hydrogels studied here were 13.0° C., 35.9° C., 33.6° C., 17.5° C., and 22.9° C. for Q3-7, respectively, as compared to 17.0° C. for Q and 22.0° C. for Q2 found previously. Bivariate regression allowed for solving the coefficients for the dependence of temperature and concentration on gelation.
Tube Inversion. Binary sol-gel behavior was assessed using tube inversion. Immediately after concentration to 2 mM, 150 μL of Q hydrogel variants were incubated in 2 mL microtubes at 4° C. for two weeks. Gelation was visually observed by inverting the microtube and inspecting the sample for flow from the top of tube.

“Q2LTF: protein-engineered fluorinated coiled-coil fiber, Q2 with trifluoroleucine, SEQ ID NO: 20 (MRGSHHHHHHGSIEGRVKE[LTF][LTF]F[LTF]KKTAEQM[LTF]EE[LTF]KETNKA[LTF]HDVRH[LTF][LTF]ENQSK[LTF]; ends and bridges not checked) [Protein Q2LTF]”: in data set [1] (50 μM Q2LTF, 40 μM curcumin), the “average fiber diameter after CCM binding (confocal)” value was 10.8±5.4 μm. Besides, the melting temperature in data set [2] (in only water) was 32.6±1.6 °C; in data set [2] (phosphate buffer (50 mM Na2HPO4, pH 8.0)), 65.0±2.9 °C.
On to “Q: rationally designed pentameric coiled-coil derived from C, SEQ ID NO: 23 (MRGSHHHHHHGSIEGRVKEITFLKNTAPQMLRELQETNAALQDVRELLRQQSKL) [reference compound]”, for which the “hydrogel fibril diameter (TEM)” value in data set [3] turned out to be 40.5±25.2 nm. The “fiber diameter after CCM binding (confocal)” value in data set [1] is reported as 14.74±5.501 μm. Further, the solubility limit in data set [4] worked out at 3.5 mM. In data set [4], this substance gave a UCST of 17.0 °C. Further, the melting temperature amounted to 76.4±4.6 °C in data set [2] (CCM-bound, pH 4.0) and 37.0±7.8 °C in data set [2] (native, 50 mM NaH2PO4 pH 4.0).
As to “Q2: coiled-coil protein redesigned from Q for reduced lateral assembly, SEQ ID NO: 11 (MRGSHHHHHHGSIEGRVKELLFLKKTAEQMLEELKETNKALHDVRHLLENQSKL) [Protein Q2]”, the “hydrogel fibril diameter (TEM)” value in data set [3] amounted to 28.9±8.6 nm. Besides, in data set [1], the “fiber diameter after CCM binding (confocal)” value turned out to be 7.17±2.19 μm. The same substance returned a solubility limit in data set [4] of 3.5 mM. In addition, the UCST in data set [4] is 22.0 °C. Further, the melting temperature in data set [2] (CCM-bound, pH 4.0) came to 59.9±6.3 °C; in data set [2] (native, 50 mM NaH2PO4 pH 4.0) it was 43.4±4.0 °C.
On to “Q5: Q hydrogel variant from Rosetta Monte Carlo search, SEQ ID NO: 14 (MRGSHHHHHHGSIEGRVKEITFIKKTIEQIAEEMKEINKAIHDIRHALENISKK) [Protein Q5]”, for which the “hydrogel fibril diameter (TEM)” value in data set [3] is given as 22.2±8.4 nm. In data set [4], this substance returned a solubility limit of 3.5 mM and a UCST of 33.6 °C.
In the case of “Q3: Q variant with V44I pore mutation, SEQ ID NO: 12 (MRGSHHHHHHGSIEGRVKEILFLKNTAYQMLLELKETNEALYDIRHLLQQQSKL) [Protein Q3]”, the “hydrogel fibril diameter (TEM)” value in data set [3] is on record as 32.8±9.8 nm. Moreover, the “fiber diameter after CCM binding (confocal)” value in data set [1] came to 8.04±1.78 μm. This substance also gave a UCST in data set [4] of 13.0 °C. Further, the melting temperature was 61.9±2.0 °C in data set [2] (CCM-bound, pH 4.0) and 61.0±4.9 °C in data set [2] (native, 50 mM NaH2PO4 pH 4.0).
